The record followed here is patent US20250188176A1 (INVETX, published 2025).

First the molecules themselves.
T1: Extracellular domain (ECD) of the canine IL-4 receptor alpha-V5 epitope-AviTag-His Tag (canine)
T1 construct: monomeric form isolated by size exclusion; also called canine IL-4RA-V5-Avi-His; canine IL-4RA
T1 chain: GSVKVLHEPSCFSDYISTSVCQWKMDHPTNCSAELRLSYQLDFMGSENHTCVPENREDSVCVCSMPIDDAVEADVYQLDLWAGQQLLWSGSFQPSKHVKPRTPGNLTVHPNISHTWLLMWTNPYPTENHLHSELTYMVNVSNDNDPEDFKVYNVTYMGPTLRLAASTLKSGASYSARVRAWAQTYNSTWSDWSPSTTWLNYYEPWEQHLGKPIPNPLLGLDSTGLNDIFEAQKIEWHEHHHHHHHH

B1: TB640_005 Fab-SASA VL-I33V (Fab, V domains shown)
VH: EVQLVESGGDLVKPGGSLRLSCVASGFTFRDYAMTWVRQAPGKGLQWVSLISGSGGKTYYADAVKGRFTISRDNAKNTLYLQMNSLRAEDTAVYYCAVDRLTKTIRPQYYGLWVWGQGTLVTVSS
VL: DIVMTQTPLSLSVSPGETASISCRSSQSLLYSVGYNYLDWYLQKPGQSPQGLIYLGSKRASGVPDRFSGSGSGTDFTLRISRVEANDTGVYYCMQGLQSPLTFGQGTKLEIKR
notes: not shown: SASA tag then His-tag
B2: TB640_005 Fab-SASA VL-Q27H (Fab, V domains shown)
VH: EVQLVESGGDLVKPGGSLRLSCVASGFTFRDYAMTWVRQAPGKGLQWVSLISGSGGKTYYADAVKGRFTISRDNAKNTLYLQMNSLRAEDTAVYYCAVDRLTKTIRPQYYGLWVWGQGTLVTVSS
VL: DIVMTQTPLSLSVSPGETASISCRSSHSLLYSIGYNYLDWYLQKPGQSPQGLIYLGSKRASGVPDRFSGSGSGTDFTLRISRVEANDTGVYYCMQGLQSPLTFGQGTKLEIKR
notes: as for B1
B3: TB640_005 Fab-SASA VL-Q27L (Fab, V domains shown)
VH: EVQLVESGGDLVKPGGSLRLSCVASGFTFRDYAMTWVRQAPGKGLQWVSLISGSGGKTYYADAVKGRFTISRDNAKNTLYLQMNSLRAEDTAVYYCAVDRLTKTIRPQYYGLWVWGQGTLVTVSS
VL: DIVMTQTPLSLSVSPGETASISCRSSLSLLYSIGYNYLDWYLQKPGQSPQGLIYLGSKRASGVPDRFSGSGSGTDFTLRISRVEANDTGVYYCMQGLQSPLTFGQGTKLEIKR
notes: as for B1
B4: TB640_005 Fab-SASA VL-L30T (Fab, V domains shown)
VH: EVQLVESGGDLVKPGGSLRLSCVASGFTFRDYAMTWVRQAPGKGLQWVSLISGSGGKTYYADAVKGRFTISRDNAKNTLYLQMNSLRAEDTAVYYCAVDRLTKTIRPQYYGLWVWGQGTLVTVSS
VL: DIVMTQTPLSLSVSPGETASISCRSSQSLTYSIGYNYLDWYLQKPGQSPQGLIYLGSKRASGVPDRFSGSGSGTDFTLRISRVEANDTGVYYCMQGLQSPLTFGQGTKLEIKR
notes: as for B1
B5: TB640_005 Fab-SASA VL-T102G (Fab, V domains shown)
VH: EVQLVESGGDLVKPGGSLRLSCVASGFTFRDYAMTWVRQAPGKGLQWVSLISGSGGKTYYADAVKGRFTISRDNAKNTLYLQMNSLRAEDTAVYYCAVDRLTKTIRPQYYGLWVWGQGTLVTVSS
VL: DIVMTQTPLSLSVSPGETASISCRSSQSLLYSIGYNYLDWYLQKPGQSPQGLIYLGSKRASGVPDRFSGSGSGTDFTLRISRVEANDTGVYYCMQGLQSPLGFGQGTKLEIKR
notes: as for B1
B6: TB640_005 Fab-SASA VL-L101N (Fab, V domains shown)
VH: EVQLVESGGDLVKPGGSLRLSCVASGFTFRDYAMTWVRQAPGKGLQWVSLISGSGGKTYYADAVKGRFTISRDNAKNTLYLQMNSLRAEDTAVYYCAVDRLTKTIRPQYYGLWVWGQGTLVTVSS
VL: DIVMTQTPLSLSVSPGETASISCRSSQSLLYSIGYNYLDWYLQKPGQSPQGLIYLGSKRASGVPDRFSGSGSGTDFTLRISRVEANDTGVYYCMQGLQSPNTFGQGTKLEIKR
notes: as for B1
B7: TB640_005 Fab-SASA VL-S57T (Fab, V domains shown)
VH: EVQLVESGGDLVKPGGSLRLSCVASGFTFRDYAMTWVRQAPGKGLQWVSLISGSGGKTYYADAVKGRFTISRDNAKNTLYLQMNSLRAEDTAVYYCAVDRLTKTIRPQYYGLWVWGQGTLVTVSS
VL: DIVMTQTPLSLSVSPGETASISCRSSQSLLYSIGYNYLDWYLQKPGQSPQGLIYLGTKRASGVPDRFSGSGSGTDFTLRISRVEANDTGVYYCMQGLQSPLTFGQGTKLEIKR
notes: as for B1
B8: TB640_005 Fab-SASA VL-S57N (Fab, V domains shown)
VH: EVQLVESGGDLVKPGGSLRLSCVASGFTFRDYAMTWVRQAPGKGLQWVSLISGSGGKTYYADAVKGRFTISRDNAKNTLYLQMNSLRAEDTAVYYCAVDRLTKTIRPQYYGLWVWGQGTLVTVSS
VL: DIVMTQTPLSLSVSPGETASISCRSSQSLLYSIGYNYLDWYLQKPGQSPQGLIYLGNKRASGVPDRFSGSGSGTDFTLRISRVEANDTGVYYCMQGLQSPLTFGQGTKLEIKR
notes: as for B1
B9: TB640_005 Fab-SASA VL-T102N (Fab, V domains shown)
VH: EVQLVESGGDLVKPGGSLRLSCVASGFTFRDYAMTWVRQAPGKGLQWVSLISGSGGKTYYADAVKGRFTISRDNAKNTLYLQMNSLRAEDTAVYYCAVDRLTKTIRPQYYGLWVWGQGTLVTVSS
VL: DIVMTQTPLSLSVSPGETASISCRSSQSLLYSIGYNYLDWYLQKPGQSPQGLIYLGSKRASGVPDRFSGSGSGTDFTLRISRVEANDTGVYYCMQGLQSPLNFGQGTKLEIKR
notes: as for B1
B10: TB640_005 Fab-SASA VL-Q95N (Fab, V domains shown)
VH: EVQLVESGGDLVKPGGSLRLSCVASGFTFRDYAMTWVRQAPGKGLQWVSLISGSGGKTYYADAVKGRFTISRDNAKNTLYLQMNSLRAEDTAVYYCAVDRLTKTIRPQYYGLWVWGQGTLVTVSS
VL: DIVMTQTPLSLSVSPGETASISCRSSQSLLYSIGYNYLDWYLQKPGQSPQGLIYLGSKRASGVPDRFSGSGSGTDFTLRISRVEANDTGVYYCMNGLQSPLTFGQGTKLEIKR
notes: as for B1
B11: TB640_005 Fab-SASA VL-Q27T (Fab, V domains shown)
VH: EVQLVESGGDLVKPGGSLRLSCVASGFTFRDYAMTWVRQAPGKGLQWVSLISGSGGKTYYADAVKGRFTISRDNAKNTLYLQMNSLRAEDTAVYYCAVDRLTKTIRPQYYGLWVWGQGTLVTVSS
VL: DIVMTQTPLSLSVSPGETASISCRSSTSLLYSIGYNYLDWYLQKPGQSPQGLIYLGSKRASGVPDRFSGSGSGTDFTLRISRVEANDTGVYYCMQGLQSPLTFGQGTKLEIKR
notes: as for B1
B12: TB640_005 Fab-SASA VL-L55M (Fab, V domains shown)
VH: EVQLVESGGDLVKPGGSLRLSCVASGFTFRDYAMTWVRQAPGKGLQWVSLISGSGGKTYYADAVKGRFTISRDNAKNTLYLQMNSLRAEDTAVYYCAVDRLTKTIRPQYYGLWVWGQGTLVTVSS
VL: DIVMTQTPLSLSVSPGETASISCRSSQSLLYSIGYNYLDWYLQKPGQSPQGLIYMGSKRASGVPDRFSGSGSGTDFTLRISRVEANDTGVYYCMQGLQSPLTFGQGTKLEIKR
notes: as for B1
B13: TB640_005 Fab-SASA VL-S57H (Fab, V domains shown)
VH: EVQLVESGGDLVKPGGSLRLSCVASGFTFRDYAMTWVRQAPGKGLQWVSLISGSGGKTYYADAVKGRFTISRDNAKNTLYLQMNSLRAEDTAVYYCAVDRLTKTIRPQYYGLWVWGQGTLVTVSS
VL: DIVMTQTPLSLSVSPGETASISCRSSQSLLYSIGYNYLDWYLQKPGQSPQGLIYLGHKRASGVPDRFSGSGSGTDFTLRISRVEANDTGVYYCMQGLQSPLTFGQGTKLEIKR
notes: as for B1
B14: TB640_005 Fab-SASA VL-T102L (Fab, V domains shown)
VH: EVQLVESGGDLVKPGGSLRLSCVASGFTFRDYAMTWVRQAPGKGLQWVSLISGSGGKTYYADAVKGRFTISRDNAKNTLYLQMNSLRAEDTAVYYCAVDRLTKTIRPQYYGLWVWGQGTLVTVSS
VL: DIVMTQTPLSLSVSPGETASISCRSSQSLLYSIGYNYLDWYLQKPGQSPQGLIYLGSKRASGVPDRFSGSGSGTDFTLRISRVEANDTGVYYCMQGLQSPLLFGQGTKLEIKR
notes: as for B1
B15: TB640_005 Fab-SASA VL-L30A (Fab, V domains shown)
VH: EVQLVESGGDLVKPGGSLRLSCVASGFTFRDYAMTWVRQAPGKGLQWVSLISGSGGKTYYADAVKGRFTISRDNAKNTLYLQMNSLRAEDTAVYYCAVDRLTKTIRPQYYGLWVWGQGTLVTVSS
VL: DIVMTQTPLSLSVSPGETASISCRSSQSLAYSIGYNYLDWYLQKPGQSPQGLIYLGSKRASGVPDRFSGSGSGTDFTLRISRVEANDTGVYYCMQGLQSPLTFGQGTKLEIKR
notes: as for B1
B16: TB640_005 Fab-SASA VL-Q27E (Fab, V domains shown)
VH: EVQLVESGGDLVKPGGSLRLSCVASGFTFRDYAMTWVRQAPGKGLQWVSLISGSGGKTYYADAVKGRFTISRDNAKNTLYLQMNSLRAEDTAVYYCAVDRLTKTIRPQYYGLWVWGQGTLVTVSS
VL: DIVMTQTPLSLSVSPGETASISCRSSESLLYSIGYNYLDWYLQKPGQSPQGLIYLGSKRASGVPDRFSGSGSGTDFTLRISRVEANDTGVYYCMQGLQSPLTFGQGTKLEIKR
notes: as for B1

The target of the assay is T1, Extracellular domain (ECD) of the …. Briefly: SPR, Fab-SASA captured on BSA.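 Note: biacore T200 SPR, Fab-SASA variants from E. coli conditioned medium captured on BSA-coated CM5 chip, canine IL-4RA injected 120 s then 420 s dissociation, 1:1 model fit.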 In general terms: In SPR one partner is held on a chip, and binding of the other changes the refractive index at the surface.
Experimental: Forty-four PML clones were selected from each library for expression in E. coli in 96 deep-well plates by inoculating into 2YT medium and inducing with 0.2 mM IPTG overnight at room temperature. The Fab secreted in the medium was analyzed for binding activity by completing an ELISA. […] The 39 unique clones were confirmed by an off-rate screening assay in an SPR assay performed on a Biacore T200. For the SPR analyses, bovine serum albumin (BSA) was immobilized to CM5 sensor chip. The sensor chip surface was activated with 50 mmol/L H-Hydroxysuccinimide and 200 mmol/L 1-ethyl-3-(3-dimethylaminopropyl) carbodiimide hydrochloride for 420 s. Afterwards, BSA diluted in 10 mM sodium acetate, pH 4.5 was injected. After the amine coupling reaction, the remaining active coupling sites on the chip surface were blocked with 1 mM ethanolamine hydrochloride. The selected Fab-SASA variants in conditioned medium were captured on the BSA-coated chips. The running buffer was HBS-EP (10 mM HEPES 500 mM NaCl, 3 mM EDTA, 0.05% Tween 20, pH 7.4). After equilibration, canine IL-4RA was injected for 120 seconds (association phase) followed by the injection of running buffer for 420 sec (dissociation phase). The off-rates of the Fab-SASA clones were obtained from fitting the experimental data locally to a 1:1 interaction model using the Biacore T200 evaluation software.
Take B1: the Kd stood at 12.7 nM, the “Ratio WT-kd/clone-kd” value is 0.94, the koff was found to be 0.00101 s⁻¹ and the kon is 79800 M⁻¹ s⁻¹.
The matching figures for B2: 14.9 nM, 0.97, 0.000979 s⁻¹ and 65700 M⁻¹ s⁻¹.
As to B3, the affinity, expressed as Kd, was 15.5 nM; the “Ratio WT-kd/clone-kd” value was determined as 0.96; the koff was 0.000996 s⁻¹; the kon came to 64200 M⁻¹ s⁻¹.
Regarding B4, the Kd is 11.8 nM, the “Ratio WT-kd/clone-kd” value amounted to 1.54, the koff came to 0.000618 s⁻¹ and the kon is 52200 M⁻¹ s⁻¹.
The like results for B5 were, in that order, 5.74 nM, 2.11, 0.000451 s⁻¹ and 78500 M⁻¹ s⁻¹.
For the molecule B6, binding was put at a Kd of 9.76 nM, the “Ratio WT-kd/clone-kd” value was determined as 0.3, the koff was found to be 0.00321 s⁻¹ and the kon worked out at 328000 M⁻¹ s⁻¹.
For the molecule B7, the affinity, expressed as Kd, was 15 nM; the “Ratio WT-kd/clone-kd” value amounted to 0.91; the koff was 0.00105 s⁻¹; the kon is 70400 M⁻¹ s⁻¹.
The like results for B8 were, in that order, 8.8 nM, 1.32, 0.00072 s⁻¹ and 81800 M⁻¹ s⁻¹.
The matching figures for B9: 6.83 nM, 1.74, 0.000548 s⁻¹ and 80100 M⁻¹ s⁻¹.
The like results for B10 were, in that order, 4.15 nM, 1.99, 0.00048 s⁻¹ and 116000 M⁻¹ s⁻¹.
B11: the Kd came to 15.9 nM, the “Ratio WT-kd/clone-kd” value was found to be 0.86, the koff came out at 0.00111 s⁻¹ and the kon turned out to be 69700 M⁻¹ s⁻¹.
Take B12: the Kd came out at 7.97 nM, the “Ratio WT-kd/clone-kd” value was found to be 1.42, the koff was 0.000669 s⁻¹ and the kon turned out to be 83900 M⁻¹ s⁻¹.
As for B13, the affinity, expressed as Kd, was 8.2 nM; the “Ratio WT-kd/clone-kd” value came out at 1.41; the koff amounted to 0.000677 s⁻¹; the kon amounted to 82600 M⁻¹ s⁻¹.
The like results for B14 were, in that order, 6.53 nM, 1.7, 0.000562 s⁻¹ and 86000 M⁻¹ s⁻¹.
The matching figures for B15: 27.3 nM, 0.51, 0.00187 s⁻¹ and 68600 M⁻¹ s⁻¹.
Take B16: the Kd stood at 13.4 nM, the “Ratio WT-kd/clone-kd” value turned out to be 1.09, the off-rate constant (koff) is 0.000873 s⁻¹ and the kon was determined as 65300 M⁻¹ s⁻¹.

What is called Kd is the concentration at which binding is half-saturated. The low end stands for tighter binding, the high end for weaker binding. One may read the koff as the first-order rate constant of dissociation. Low values mean a long-lived complex, high ones a short-lived complex. The kon is the rate constant with which the complex forms. Lower therefore signals slow association.
